{
  "source": "patent US20260234222A1",
  "about": "(LEYDEN LABORATORIES B V, published 2026)",
  "binders": {"B1": {"name": "Bispecific 1 (bispecific antibody)", "heavy 1": "not shown", "light 1": "EIVLTQSPGTLSLSPGERATLSCRASQSVRRNYFAWYQQKRGQAPRLLIYDASTRATGIPDRFSGSGSGTDFTLTISRLEPEDFAVYYCQQYDSSPPMYIFGQGTKLEIKSSASTKGPSVFPLAPSSKSTSGGTAALGCLVKDYFPEPVTVSWNSGALTSGVHTFPAVLQSSGLYSLSSVVTVPSSSLGTQTYICNVNHKPSNTKVDKKVEPKSC", "heavy 2": "not shown", "light 2": "QSALTQPPSASGSPGQSVTISCSGTSSDVGGYNFVSWYQHHPGKAPKILIYEVTKRPSGVPDRFSGSKSGNTASLTVSGLQAEDEADYYCSSYGGTNNLLFGGGTKLTVLGQPKAAPSVTLFPPSSEELQANKATLVCLISDFYPGAVTVAWKADSSPVKAGVETTTPSKQSNNKYAASSYLSLTPEQWKSHRSYSCQVTHEGSTVEKTVAPTECS"}, "B2": {"name": "Parental mAb 1 (antibody, V domains shown)", "VH": "QEQLVQSGAEVKKPGASVKVSCKSSGFTFSYFYLHWVRQAPGQGLEWMGIINPRGDGTRYAQKFQGRVTMTRDASTGTLYMELRSLRSEDTAVYYCARGADHGAFDIWGQGTMVTVSS", "VL": "EIVLTQSPGTLSLSPGERATLSCRASQSVRRNYFAWYQQKRGQAPRLLIYDASTRATGIPDRFSGSGSGTDFTLTISRLEPEDFAVYYCQQYDSSPPMYIFGQGTKLEIK", "notes": "also called antibody according to the invention; first parental antibody"}, "B3": {"name": "Parental mAb 2 (antibody, V domains shown)", "VH": "QMQLMQSGAEVKKPGASVTVSCKASGDTFSDYRIHWVRQAPGQGLEWMGRMNPKSGDTNFAQKFQGRVTMTRDMSINTAYMTLSGLTFDDTALYYCASLLIVGGFDPLDDFEVWGQGTMVTISS", "VL": "QSALTQPPSASGSPGQSVTISCSGTSSDVGGYNFVSWYQHHPGKAPKILIYEVTKRPSGVPDRFSGSKSGNTASLTVSGLQAEDEADYYCSSYGGTNNLLFGGGTKLTVL"}},
  "test_in_all_cases": "cell-based or functional assay",
  "key": {"[1]": {"molecular_target": "SARS-CoV-2 Delta Spike antigen (SARS-CoV-2 Delta)"}, "[2]": {"molecular_target": "SARS-CoV-2 Omicron XBB.1.1 spike (SARS-CoV-2 Omicron XBB.1.1)"}, "[3]": {"molecular_target": "T1, SARS-CoV-2 Omicron BA.4/5 spike (SARS-CoV-2 Omicron BA.4/5)"}, "[4]": {"molecular_target": "SARS-CoV-2 Delta Spike antigen (SARS-CoV-2 Delta)", "remark": "listed apart in the source"}, "[5]": {"molecular_target": "T1, SARS-CoV-2 Omicron BA.4/5 spike", "remark": "listed apart in the source"}, "[6]": {"molecular_target": "T1, SARS-CoV-2 Omicron BA.4/5 spike", "remark": "listed apart in the source"}},
  "note": "Like-named read-outs stand apart in the source and are kept apart here.",
  "data": [
    {"binder": "B1", "values": [
      {"measurement": "Pseudovirion neutralization IC50", "setting": "[1]", "value": 0.307, "unit": "µg/mL"},
      {"measurement": "Pseudovirion neutralization IC50", "setting": "[2]", "value": 11.9, "unit": "µg/mL"},
      {"measurement": "Pseudovirion neutralization IC50", "setting": "[3]", "value": 5.14, "unit": "µg/mL"},
      {"measurement": "Live virus neutralization IC50", "setting": "[4]", "value": 14.2, "unit": "µg/mL"},
      {"measurement": "Live virus neutralization IC50", "setting": "[5]", "value": 4.85, "unit": "µg/mL"}
    ]},
    {"binder": "B2", "values": [
      {"measurement": "Pseudovirion neutralization IC50", "setting": "[2]", "value": 4.85, "unit": "µg/mL"},
      {"measurement": "Pseudovirion neutralization IC50", "setting": "[3]", "value": 4.13, "unit": "µg/mL"},
      {"measurement": "Pseudovirion neutralization IC50", "setting": "[6]", "value": 4.13, "unit": "µg/mL"},
      {"measurement": "Live virus neutralization IC50", "setting": "[5]", "value": 2.92, "unit": "µg/mL"}
    ]},
    {"binder": "B3", "values": [
      {"measurement": "Pseudovirion neutralization IC50", "setting": "[1]", "value": 0.488, "unit": "µg/mL"},
      {"measurement": "Pseudovirion neutralization IC50", "setting": "[2]", "value": 20.6, "unit": "µg/mL"},
      {"measurement": "Pseudovirion neutralization IC50", "setting": "[3]", "value": 7.56, "unit": "µg/mL"},
      {"measurement": "Live virus neutralization IC50", "setting": "[4]", "value": 16.1, "unit": "µg/mL"},
      {"measurement": "Live virus neutralization IC50", "setting": "[5]", "value": 4.62, "unit": "µg/mL"}
    ]}
  ]
}
